Where a chain is given by its changes, count along the chain named.
B1: C0120904 (antibody, V domains shown)
VH: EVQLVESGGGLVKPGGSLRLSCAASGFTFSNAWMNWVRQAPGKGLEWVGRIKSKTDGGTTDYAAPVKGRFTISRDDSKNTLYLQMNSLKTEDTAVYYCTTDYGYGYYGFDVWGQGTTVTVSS
VL: SYELTQPPSVSVSPGQTATISCSGNKLGDGYVSWYQQKPGQSPVLVIYQDSKRPSGIPQRYSGSNSGNTATLTISGTQAIDEADYYCQAWDSSTVVFGGGTKVTVL
notes: un-purified fully human phage display IgG, primary screen; also called C0120904 un-purified human IgG1
B2: 5Hg1-5Lg1 Fab fragment (Fab, V domains shown)
VH: QVQLVQSGAEVKKPGASVKVSCKASGYTFTDYWMHWVRQAPGQGLEWMGAIDTSDSYTSYNQKFKGRVTMTRDTSTSTVYMELSSLRSEDTAVYYCARDYGNFYYYAMDYWGQGTLVTVSS
VL: QAVVTQEPSLTVSPGGTVTLTCRSSTGAVTTSNYANWFQQKPGQAPRTLIYGTNNRAPWTPARFSGSLLGGKAALTLSGAQPEDEAEYYCALWYSNHWVFGGGTKLTVL
notes: Fab from pEU1.3 Fab vector (human CH1 and part of hinge) with a whole human light chain constant
B3: 5Hg2-5Lg2 Fab fragment (Fab, V domains shown)
VH: B2 VH with G44R, M70I, T76A, V79A
VL: B2 VL with S78L
notes: as for B2
B4: mouse 5E3 Fab fragment (Fab, V domains shown)
VH: QVQLQQPGAELVMPGASVKMSCKASGYTFTDYWMHWVKQRPGQGLEWIGAIDTSDSYTSYNQKFKGKATLTVDESSSTAYMQLSSLTSEDSAVYYCARDYGNFYYYAMDYWGQGTSVTVSS
VL: QAVVTQESALTTSPGETVTLTCRSSTGAVTTSNYANWVQEKPDHLFTGLIGGTNNRAPGVPARFSGSLIGDKAALTITGAQTEDEAIYFCALWYSNHWVFGGGTKLTVL
notes: Fab from pEU1.3 Fab vector (human CH1 and part of hinge) with a whole human light chain constant; also called Mouse 5E3 (KD Fab)

Columns and labels:
[1] = biological target: T1, human SEMA4A expressed on cells (UniProt ID Q9H3S1, isoform 1) (human, UniProt Q9H3S1 33-761); test: direct binding of un-purified human IgG1 to MM.1S cells endogenously expressing human SEMA4A (Mirrorball, anti-human Alexa Fluor 647); single concentration, 1.56 % final
T1 construct: Cell-surface SEMA4A: endogenous on MM.1S, NCI-H929 and Karpas-25 cells, or expi293 cells transfected with Origene SC323738; also called human Semaphorin4A; SEMA4A endogenously expressed on MM.1S cells
T1 sequence: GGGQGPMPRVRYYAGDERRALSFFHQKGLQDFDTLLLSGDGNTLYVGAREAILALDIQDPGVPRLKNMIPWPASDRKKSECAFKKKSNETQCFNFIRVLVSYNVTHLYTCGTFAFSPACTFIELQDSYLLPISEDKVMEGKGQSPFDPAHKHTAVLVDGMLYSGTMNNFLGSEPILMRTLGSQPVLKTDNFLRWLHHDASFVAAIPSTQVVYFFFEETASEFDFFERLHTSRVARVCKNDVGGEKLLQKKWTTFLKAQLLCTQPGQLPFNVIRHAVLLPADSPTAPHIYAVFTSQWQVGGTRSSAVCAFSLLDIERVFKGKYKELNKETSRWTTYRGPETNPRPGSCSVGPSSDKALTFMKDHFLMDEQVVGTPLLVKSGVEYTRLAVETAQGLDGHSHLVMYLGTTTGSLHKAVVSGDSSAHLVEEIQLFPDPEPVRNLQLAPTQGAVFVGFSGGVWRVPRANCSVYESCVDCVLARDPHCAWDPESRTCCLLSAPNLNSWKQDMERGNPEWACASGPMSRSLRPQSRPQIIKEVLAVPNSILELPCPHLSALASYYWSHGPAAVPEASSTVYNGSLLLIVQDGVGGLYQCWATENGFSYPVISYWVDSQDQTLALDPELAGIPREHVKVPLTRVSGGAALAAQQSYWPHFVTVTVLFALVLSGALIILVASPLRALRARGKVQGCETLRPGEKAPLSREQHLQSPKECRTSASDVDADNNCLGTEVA
Experimental: The MM.1S binding assay assessed the ability of the un-purified human IgG1s to bind directly to human SEMA4A that was endogenously expressed by MM.1S cells. Direct binding of a single concentration of un-purified human IgG1s to MM.1S cells was measured via an anti-human secondary labelled with Alexa Fluor 647 (Invitrogen, A21445). 10 μl undiluted un-purified IgG, contained in Expi293 expression medium (Gibco, UK, A1435101), were added to the assay plate (Greiner Bio-one, UK, 781906), followed by 10 μl 8 nM anti-human Alexa Fluor 647 and 20 μl MM.1S cell suspension containing 1,500 cells. The assay plate was incubated for 4 hours at room temperature in the dark prior to reading on a Mirrorball fluorescence cytometer (SPT Labtech, UK) using a 640 nm laser for excitation and measuring emission in the FL-4 channel (650-690 nm). Data was analysed as Count x median mean intensity (x FLU). All dilutions were performed in Hanks' balanced salt solution (Sigma, UK; cat: H8264) containing 0.1% (w/v) BSA (Sigma, UK; cat: A9576). Data were analysed and graphed using GraphPad Prism software (GraphPad Software, Inc, La Jolla, CA).

[2] = biological target: T2, recombinant cynomolgus SEMA4A AviHis10, biotinylated (cynomolgus, UniProt Q9H3S1 32-677 (human entry), biotin on the Avi tag (BirA)); test: BLI (OctetRED), biotinylated SEMA4A on streptavidin tip, Fab as analyte, 1:1 model
T2 construct: The text says amino acids 32-679 of G7NV79 with C-terminal Avi tag and His10 tag; also called Cyno SEMA4A AviHis10; cynoSEMA4A
T2 chain: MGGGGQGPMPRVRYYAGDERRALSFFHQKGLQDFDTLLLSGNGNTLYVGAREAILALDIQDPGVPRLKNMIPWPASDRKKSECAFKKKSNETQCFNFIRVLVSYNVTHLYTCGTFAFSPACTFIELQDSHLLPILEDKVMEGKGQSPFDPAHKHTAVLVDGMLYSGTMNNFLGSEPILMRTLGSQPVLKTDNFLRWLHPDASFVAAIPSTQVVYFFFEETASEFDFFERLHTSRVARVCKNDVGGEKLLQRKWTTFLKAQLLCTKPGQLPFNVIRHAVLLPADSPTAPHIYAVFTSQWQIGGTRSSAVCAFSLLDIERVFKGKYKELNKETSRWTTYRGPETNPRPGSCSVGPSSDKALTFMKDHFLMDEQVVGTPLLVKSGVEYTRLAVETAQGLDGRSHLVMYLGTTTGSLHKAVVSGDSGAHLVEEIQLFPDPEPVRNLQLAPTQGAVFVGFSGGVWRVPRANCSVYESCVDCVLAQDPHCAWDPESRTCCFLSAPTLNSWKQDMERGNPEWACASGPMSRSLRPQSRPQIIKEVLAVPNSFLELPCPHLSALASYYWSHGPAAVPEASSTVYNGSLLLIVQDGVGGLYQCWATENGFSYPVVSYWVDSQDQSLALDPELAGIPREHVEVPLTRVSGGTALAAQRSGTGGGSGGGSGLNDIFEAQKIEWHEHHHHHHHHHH
Experimental: (§1) An Octet Kinetics buffer (PBS containing 0.01% (v/v) BSA and 0.002% (v/v) Tween20) is typically used as the diluent buffer for the analyte samples and as the flow buffer during the dissociation phase. The experimental data is recorded as shift in interference pattern (nm) over time, which is directly proportional to the optical thickness at the biosensor tip, which in turn is an approximate measure of the mass of analyte bound. The proprietary Octet Data Analysis software package can then be used to process data and fit binding models to the data sets. Returned association (ka, M-1 s-1) and dissociation (kd, s-1) rate constants allow calculation of dissociation (KD, M) affinity constants.
(§2) The affinity of binding between the analytes (humanised and phage display derived IgGs as human Alya IgG1s and Fabs) and human SEMA4A and cynomolgus SEMA4A, was estimated using assays in which the biotinylated SEMA4A antigen was captured on a streptavidin sensor tip. A fresh sensor tip was used for each measurement and no regeneration was used. A series of dilutions of the lead Fabs and human Alya IgG1s (3.25-240 nM) were individually placed in contact with the ligand surface for a sufficient amount of time to observe sensorgrams that could be fitted to an appropriate binding model with confidence (typically 5 minutes), followed by an appropriate length of dissociation time (typically 10 minutes). Blank reference (0 nM analyte) data were subtracted from each dataset to reduce the impact of any buffer artefacts or non-specific binding effects. A 1:1 binding model was then fitted simultaneously to the data from each analyte titration using the Octet Evaluation software (Table 8).

[3] = biological target: T3, recombinant human SEMA4A AviHis10, biotinylated (human, UniProt Q9H3S1 33-683, biotin on the Avi tag (BirA)); test: as above
T3 construct: The text says amino acids 33-683 of Q9H3S1 with C-terminal Avi tag and His10 tag; also called avi-SEMA4A-His10
T3 sequence: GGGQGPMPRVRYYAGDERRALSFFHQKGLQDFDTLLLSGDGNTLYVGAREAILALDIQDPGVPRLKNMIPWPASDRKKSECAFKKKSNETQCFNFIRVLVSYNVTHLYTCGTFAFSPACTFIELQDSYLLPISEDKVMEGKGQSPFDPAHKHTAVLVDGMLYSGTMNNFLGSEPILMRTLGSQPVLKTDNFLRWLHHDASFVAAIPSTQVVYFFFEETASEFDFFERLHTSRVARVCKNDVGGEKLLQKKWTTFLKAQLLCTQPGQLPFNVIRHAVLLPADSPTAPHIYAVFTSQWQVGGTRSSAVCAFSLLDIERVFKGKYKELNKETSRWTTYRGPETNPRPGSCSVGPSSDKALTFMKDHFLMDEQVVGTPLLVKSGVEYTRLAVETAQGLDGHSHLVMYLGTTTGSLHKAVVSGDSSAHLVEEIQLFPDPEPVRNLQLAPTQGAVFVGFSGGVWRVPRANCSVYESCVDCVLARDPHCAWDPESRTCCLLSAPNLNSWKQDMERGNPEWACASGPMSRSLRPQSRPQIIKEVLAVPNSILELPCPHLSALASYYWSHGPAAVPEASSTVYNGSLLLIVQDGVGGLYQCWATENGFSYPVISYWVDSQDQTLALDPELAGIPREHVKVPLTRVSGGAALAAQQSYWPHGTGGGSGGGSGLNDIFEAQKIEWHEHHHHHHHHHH
Experimental: as §1, §2

| Binder | binding result [1] | Kd [2] [µM] | Kd [3] [µM] |
| --- | --- | --- | --- |
| B1 | binds | – | – |
| B2 | – | 0.073 | 0.066 |
| B3 | – | 0.048 | 0.041 |
| B4 | – | 0.009 | 0.009 |

From patent US20250152729A1 (CANCER RESEARCH TECHNOLOGY, published 2025)
